Test results: the RNAGym collection of RNA variant scans (doi:10.1073/pnas.2313332121)

B1: TPR t1 (parent)
chain: GACCAAUCUGCCCUCAGAGCUCGAGAACAUCUUCGGAUGCAGAGGAGGCAGGCUUCGGUGGCGCGAUAGCGCCAACGUCCUCAACCUCCAAUGCAUCCCACCACAUGAUGAUGCCUGAAGAGCCUUGGUUUUUUG

Variants of: B1
Experiment: polymerase ribozyme fitness, log enrichment relative to wild type (log ratio); higher = more active; in vitro selection for triplet polymerase activity
Procedure, shortened: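 To select mutant libraries of each subunit of a heterodimeric triplet polymerase ribozyme, built by PCR and transcribed, each was annealed with a biotinylated primer, partner subunit and triplets, then incubated frozen at −7 °C. Extended constructs were gel-excised, captured on streptavidin beads and amplified by RT-PCR, in one round carried out in triplicate. Illumina sequencing of input and output libraries kept genotypes with ≥10 input reads and ≥1 read per output. Fitness is the base-2 logarithm of genotype enrichment relative to wild-type enrichment, from inverse-variance-weighted replicate averages.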

In order of falling “polymerase ribozyme fitness (log ratio)” value:
1. GACCAAUCUGCCCUCAGAGCUCGAGAACAUCUUCGCAUGCAGAGGAGGCAGGCUUCGGUGGCGCGAUAUCGCCAACGUCCUCAACCUCCAAUGCAUCCCACCACAUGAUGAUGCCUGAACAGCCUUGGUUUUUUG  0.673
2. GACCAAUCUGCCCUCAGAGCUCGAGAACAUCUUCGCAUGCAGAGGAGGCAGGCUUCGGUGGCGCGAUAGCGCCAACGUCCUCAACCUCCAAUGCAUCCCACCACAUGAUGAUGCCUGAAGAGUCUUGGUUUUUUG  -0.107
3. GACCAAUCUGCCCUCAGAGCUCGAGAACAUCUUCGCAUGCAGAGGAGGCAGGCUUCGGUGGCGCGAUAGCGCCAACGUCCUCAACCUCCAAUGCAUCCCACCACAUGAUGAUGCCUGAAAAGCCUUGGUUUUUUG  -0.114
4. GACCAAUCUGCCCUCAGAGCUCGAGAACAUCUUCGCAUGCAGAGGAGGCAGGCUUCGGUUGCGCGAUAGCGCCAACGUCCUCAACCUCCAAUGCAUCCCACCACAUGAUGAUGCCUGAAGAGCCUUGGUUUUUUG  -0.402
5. GACCAAUCUGCCCUCAGAGCUCGAGAACAUCUUCGCAUGCAGAGGAGGCAGGCUUCGGUGGCGCGAUAGCGCCAACGUCCUCAACCUCCAAUGCAUCCCACCACAUGAUGAUGCCUGAAUAGCCUUGGUUUUUUG  -0.655
6. GACCAAUCUGCCCUCAGAGCUCGAGAACAUCUUCGCAUGCAGAGGAGGCAGGCUUCGGUGGCGCGAUAUCGCCAACGUCCUCAACCUCCAAUGCAUCCCACCACAUGAUGAUGCCUGAAGAGCCUUGGUUUCUUG  -0.866
7. GACCAAUCUGCCCUCAGAGCUCGAGAACAUCUUCGUAUGCAGAGGAGGCAGGCUUCGGUGGCGCGAUAGCGCCAACGUCCUCAACCUCCGAUGCAUCCCACCACAUGAUGAUGCCUGAAGAGCCUUGGUUUUUUG  -0.944
8. GACCAAUCUGCCCUCAGAGCUCGAGAACAUCUUCGUAUGCAGAGGAGGCAGGGUUAGGUGGCGCGAUAGCGCCAACGUCCUCAACCUCCAAUGCAUCCCACCACAUGAUGAUGCCUGAAGAGCCUUGGUUUUUUG  -1.45
9. GACCAAUCUGCCCUCAGAGCUCGAGAACAUCUUCGUAUGCAGAGGAGGCAGGCUUCGGUGGCGCGAUAGCGCCAACGUCCUCUACCUCCAAUGCAUCCCACCACAUGAUGAUGCCUGAAGAGCCUUGGUUUUUUG  -1.49
10. GACCAAUCUGCCCUCAGAGCUCGAGAACAUCUUCGCAUGCAGAGGAGGCAGACUUCGGUGGCGCGAUAGCGCCAACGUCCUCAACCUCCAAUGCAUCCCACCACAUGAUGAUGCCUGAAGAGCCUUGGUUUUUUG  -1.54
11. GACCAAUCUGCCCUCAGAGCUCGAGAACAUCUUCGUCUGCAGAGGAGGCAGGCUUCGGUGGCGCGAUAGCGCCAACGUCCUCAACCUCCAAUGCAUCCCACCAUAUGAUGAUGCCUGAAGAGCCUUGGUUUUUUG  -1.76
12. GACCAAUCUGCCCUCAGAGCUCGAGAACAUCUUCGUAUGCAGAGGAGGCAGGCUUAGGUGGCGCGAUAGCGCCAACGUCCUCAACCUCCAAUGCAUCCCACCACAUGAUGAUGCCUGAAGAGCCUUGGUUUAUUG  -1.83
13. GACCAAUCUGCCCUCAGAGCUCGAGAACAUCUUCGUAUGCAGAGGAGGCAGGCUUCGGUGGCGCGAUAGCGCCAACGUCCUCACCCUCCAAUGCAUCCCACCACAUGAUAAUGCCUGAAGAGCCUUGGUUUUUUG  -2.43
14. GACCAAUCUGCCCUCAGAGCUCGAGAACAUCUUCGUAUGCAGAGGAGGCAGGCUUCGGUGGCGCGGUAUCGCCAACGUCCUCAACCGCCAAUGCAUCCCACCACAUGAUGAUGCCUGAAGAGCCUUGGUUUUUUG  -2.53
15. GACCAAUCUGCCCUCAGAGCUCGAGAACAUCUUCGUAUGCAGUGGAGGCAGGCUUCGGUGGCGCGAUAGCGCCAACGUCCUCAACCUCCAAUGCAUCCCACCACAUGAUGAUGCCUGAAGAGCCUUGGUUUUUUG  -2.65
16. GACCAAUCUGCCCUCAGAGCUCGAGAACAUCUUCGCAUGCAGAGGAGGCAGGCUUCGGUGGCGCGAUAGCGCCAACGUCCUCAACCUCCAAUGCAUCCCACCACAUGAUGAUCCCUGAAGAGCCUUGGUUUUUUG  -2.78
17. GACCAAUCUGCCCUCAGAGCUCGAGAACAUCUUCGUAUGCAGAGGAGGCAGGUUUCGGUGGCGCGAUAGCGCCAACGUCCUCAACCUCCAAUGCAUCCCACCACCUGAUGAUGCCUGAAGAGCCUUGGUUUUUUG  -2.88
18. GACCAAUCUGCCCUCAGAGCUCGAGAACAUCUUCGUAUGCAGAGGAGGCGGGCUUCGGUGGCGCGAUAGCGCCAACGUCCUCAACCUCCAAUGCAUCCCACCACAUGAUGAUGACUGAAGAGCCUUGGUUUAUUG  -2.9
19. GACCAAUCUGCCCUCAGAGCUCGAGAACAUCUUCGCAUGCAGAGCAGGCAGGCUUCGGUGGCGCGAUAGCGCCAACGUCCUCAACCUCCAAUGCAUCCCACCACAUGAUGCUGCCUGAAGAACCUUGGUUUUUUG  -2.97
20. GACCAAUCUGCCCUCAGAGCUCGAGAACAUCUUCGCAUGCAGAGGAGGCAGGCUUCGGUGGCGCGAUAGCGCCAACGUCCUCAACCUCCAAUGCAUCCCACCACAUGAUGAUGCCUGAAGAGCCUGGGUUUUUUG  -3.08
21. GACCAAUCUGCCCUCAGAGCUCGAGAACAUCUUCGCAUGCAGAGGAGGCAGGCUUCGGUGGCGCGAUAGCGCCAACGUCCUCAACCUCCAAUGCAUCCCACAACAUGAUGAUGCCUGAAGAGCCUUGGUUUUUUG  -3.12
22. GACCAAUCUGCCCUCAGAGCUCGAGAACAUCUUCGUAUGCAGAGGAGGCAGGCUUCGGUGGCGCGAUAGCGCCGACGUCCUCAACCUCCAAUGCAUCCCACCACUUGAUGAUGCCUGAAGAGCCUUGGUUUUUUG  -3.55
23. GACCAAUCUGCCCUCAGAGCUCGAGAACAUCUUCGCAUGCAGACGAGGCAGGCUUCGGUGGCGCGAUAGCGCCAACGUCCGCAACCUCCAAUGCAUCCCACCACAUGAUGAUGCCUGAAGCGCCUUGGUUUUUUG  -3.56
24. GACCAAUCUGCCCUCAGAGCUCGAGAACAUCUUCGCAUGCAGAGGAGGCAGGCUUCUGUGGCGCGAUAGCGCCAACGUCCUCAACCUCCCAUGCAUCCCACCACAAGAUGAUGCCUGAAGAGCCUUGGUUUUUUG  -3.67
25. GACCAAUCUGCCCUCAGAGCUCGAGAACAUCUUCGCAUGCAGAGGAGGCAGGCUUCGGUGGCGCGAUAGCGCCAACGUCCUCAACCUCCAAUGCAUCCCACCACAUGAUGAGGCCUAAAGAGCCUUGGUUUUUUG  -3.75
26. GACCAAUCUGCCCUCAGAGCUCGAGAACAUCUUCGCAUGCAGAGGAGGCAGGCUUCGGUGGCGCGAUAGCGCCAACGUCCUCAACCUCCAAUGCAUCUCACCACAUGAUGAUGCCUGAAGAGCCUUGGAUUUUUG  -3.81
27. GACCAAUCUGCCCUCAGAGCUCGAGAACAUCUUCGCAUGCACAGGAGGCAGGCUUCGGUCGCGCGAUAGCGCCAACGUCCUCAACCUCCAAUGCAUCCCACCACAUGAUGAUGCCUGAAGAGCCUUGGUAUUUUG  -3.88
28. GACCAAUCUGCCCUCAGAGCUCGAGAACAUCUUCGCAUGCAGAGGAGGCAGGCUUCGGUGGCGCGAUAGCGCCAACGUCCUCAACCUCCAAAGCAUCCCACCACAUGAUGAUGCCUGUAGAGCCUUGGUUUUUUG  -3.89
29. GACCAAUCUGCCCUCAGAGCUCGAGAACAUCUUCGUAUGCAGAGGAGGCAGGCUUCGGUGGCGCGAUAGCGCCGACGUCCUCUACCUCCAAUGCAUCCCAGCACAUGAUGAUGCCUGAAGAGCCUUGGUUUUUUG  -3.95
30. GACCAAUCUGCCCUCAGAGCUCGAGAACAUCUUCGCAUGCAGAGGAGGCAAGCUUCGGUGGCGCGAUAGCGCCAACGUCCUCAACCUCCAAUGCAUCCCACCACAUGAUGAUGCCUGAAGAGCCUUGGUUUUUUG  -3.99
31. GACCAAUCUGCCCUCAGAGCUCGAGAACAUCUUCGCAUGCAGAUGCGGCGGGCUUCGGUGGCGCGAUAUCGCCAACGACCUCAAACUCCAAUGCAUCCCACCACAUGAUGAUGCCUGAAGAGCUUUGGUUUUUUG  -4.01
32. GACCAAUCUGCCCUCAGAGCUCGAGAACAUCUUCGUAUGCAGAGGAGGCAGGCUUCGGUGGCGCGAUAGCGCCAACGUCCUCAACCUCCAAUGCAUCCCACCACCUGAUGAUGCCUGAAGAGCCUUGGUUUUUUU  -4.66
33. GACCAAUCUGCCCUCAGAGCUCGAGAACAUCUUCGCAUGCACAGGACGCAGGGUUUGGUGUCGCGAUAGCGUCAACGUCCUCAACGUCCAAUGCAUCCCACCACAUGAUGAUGCCCGAAGAGCCUUGGUUUUUUG  -4.72
34. GACCAAUCUGCCCUCAGAGCUCGAGAACAUCUUCGCACGCAGAGGAGGCAGGCUUCGGUGGCGCGAUAGCUCCAACGUCCUCAACCUCCAAUGCAUCCCACCACAUGAUGAUGCCUGAAGAGCCUUGGUUUUUUG  -4.73
35. GACCAAUCUGCCCUCAGAGCUCGAGAACAUCUUCGUAUGCAGAGGAGGCAGGGUUCGGUGGCCCGAUAGCGCCAACGUCCUCAACUACCAAUGCAUCCCAACACAUGAUGAUGCCUGAAGAGCCUUGGGUUUUUG  -5.54
36. GACCAAUCUGCCCUCAGAGCUCGAGAACAUCUUCGCAUGCAGAUGAGGCAGGCUUCGGUGGCGCGAUAGCGCCAACGUCCUCAACCUCCCAUGCAUCCCACUACAUGAUGAUGCCUGAAGAGCCUUGGUUUUUUG  -5.65
37. GACCAAUCUGCCCUCAGAGCUCGAGAACAUCUUCGCAUGCAGAGGAUGCAGGCUUCGGUGGCGCGAUAGCGCCAACGUCCUCAACCUCCAAUGCAUCCCACCACAUGAUCAUGCCUGAAGAGCCUUGGUUUUUUG  -5.66
38. GACCAAUCUGCCCUCAGAGCUCGAGAACAUCUUCGUAUGCAGAGGAGGCAGGCUUCGGUGGCGCGAUCGUGCCAACGUCCUCAACCACCAAUGCAUCCCACCACAUGAUGAUGCCUUAAGAGCCUUGGUUUUUUG  -5.69
39. GACCAAUCUGCCCUCAGAGCUCGAGAACAUCUUCGCAUGCAGAGGAGGCAGGCUUCGGUGCCGCGAUAGCGCCAACGUCCUCAACUUCCAAUGCAUCCCACCACAUGAUGAUGUCUGAAGAGCCUUGGUUUUUUG  -6.11
40. GACCAAUCUGCCCUCAGAGCUCGAGAACAUCUUCGCAUGCAAAGGAGGCAGGCUUCGGUGGCGCGAUAGCGCCAACGUCCUCAACCUCUAAUGCAUCCCACCACAUGAUGAUGACUCAAGAGCCUUGGUUUUUUG  -6.44
41. GACCAAUCUGCCCUCAGAGCUCGAGAACAUCUUCGCAUGCAGAGGAGGCAGGCUUCGGUGGCUCGAUAGCGCCAACGUCCUCAACCUCCAAUGCCUCCCACCACAUGAUGUUGCCUGAAGAGCCUUGGUUUUUUG  -6.67
42. GACCAAUCUGCCCUCAGAGCUCGAGAACAUCUUCGCAUGCAGAGGAGGCAGGCUUCGGUGGCGCGAUAGCGCCAACGUCCUCAACCUCCAAUGCAUCGCACCACAUGAUGAUGCCUGAAGAGCCUUGGUUUUUUG  -6.86
